Stoichiometry N, percent of the protein as disulfide-bonded circular hexamer after oxidation and percent of the protein as circular hexamer after oxidation data for four substances are collected here from publication PMC3372766.

The target in experiment [1] is +315N ClpX^ΔN (E. coli) (UniProt P0A6H1).
The target of experiment [2] is T66C P388C ClpX^ΔN (E. coli) (UniProt P0A6H1). Nature of the experiment: cross-linking.
Experiment [3] addresses T66C P388C E109C N331C ClpX^ΔN (E. coli) (UniProt P0A6H1). Briefly: cross-linking.
For experiment [4], the target named is Δ315N ClpX^ΔN (E. coli) (UniProt P0A6H1).

With “+315N ClpX^ΔN (from UniProt P0A6H1 61-423) (enzyme)”, the stoichiometry N in experiment [1] came out at 6.
In experiment [2], “T66C P388C ClpX^ΔN (from UniProt P0A6H1 61-423) (enzyme)” yielded a percent of the protein as disulfide-bonded circular hexamer after oxidation of 75% and a stoichiometry N of 6.
“T66C P388C E109C N331C ClpX^ΔN (from UniProt P0A6H1 61-423) (enzyme)”: in experiment [3], the percent of the protein as circular hexamer after oxidation was over 90% and the stoichiometry N came out at 6.
“Δ315N ClpX^ΔN (from UniProt P0A6H1 61-423) (enzyme)” had a stoichiometry N in experiment [4] of 6.

One may read the stoichiometry N as a count of units in the complex or per binding partner.
